According to patent US6084068, “Elongin A and C functional domains” (Oklahoma Medical Research Foundation, dated 2000):

T1: Elongin BC complex (wild type rat Elongin B and C) (rat, UniProt P62870)
T1 chain 1: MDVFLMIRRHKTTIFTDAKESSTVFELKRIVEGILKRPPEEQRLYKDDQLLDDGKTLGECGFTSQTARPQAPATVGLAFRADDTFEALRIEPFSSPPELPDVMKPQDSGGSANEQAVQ
T1 chain 2: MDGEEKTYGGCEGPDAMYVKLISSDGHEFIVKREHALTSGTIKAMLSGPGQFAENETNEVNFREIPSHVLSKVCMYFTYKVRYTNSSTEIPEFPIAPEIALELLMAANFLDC


Molecular target: T1, Elongin BC complex (wild type rat …)
Assay: refolded with wild type Elongin B and C; TSK SP-NPR HPLC, SDS-PAGE, silver staining

binding result	Binder
no binding	Elongin A point mutant L550S (other) MAAESALQVVEKLQARLAANPDPKKLLKYLKKLSVLPITVDILVETGVGKTVNSFRKHEQVGNFARDLVAQWKKLVPVERNNEAEDQDFEKSNSRKRPRDVPQQEEEAEGNYQESWQASGSQPYSPEHRQKKHRKLPELERPHKVAHGHERRDERKRCHKVSPPYSSDPESSDYGHVQSPPPSSPHQMYTDLSRSPEMDQEPIVSHPKPGKVHSNTFQDRLGVSHLGEHQGKGAVSQNKPHKSSHKEKRPVDARGDEKSSVMGREKSHKASSKEESRRLLSEDSAKEKLPSSVVKKEKDREGNSLKKKLSPALDVASDNHFKKPKHKDSEKIKSDKNKQSVDSVDSGRGTGDPLPRAKDKVPNNLKAQEGKVRTNSDRKSPGSLPKVEEMDMDDEFEQPTMSFESYLSYDQPRKKKKKVVKTSGTALGEKGLKKKDSKSTSKNLNSAQKLPKANENKSDKLQPAGAEPTRPRKVPTDVLPALPDIPLPAIQTNYRPLPSLELISSFQPKRKAFSSPQEEEEAGFTGRRMNSKMQVYSGSKCAYLPKMMTSHQQCIRVLKNNIDSIFEVGGVPYSVLEPVLERCTPDQLYRIEECNHVLIEETDQLWKVHCHRDFKEERPEEYESWREMYLRLQDAREQRLRLLTNNIRSAHANKPKGRQAKMAFVNSVAKPPRDVRRRQEKFGTGGAAVPEKVRIKPAPYTTGSSHVPASNSSSSFHSSPEELAYEGPSTSSAHLAPVASSSVSYDPRKPAVKKIAPMMAKTIKAFKNRFSRR
no binding	Elongin A internal deletion mutant Δ546-565 (other) MAAESALQVVEKLQARLAANPDPKKLLKYLKKLSVLPITVDILVETGVGKTVNSFRKHEQVGNFARDLVAQWKKLVPVERNNEAEDQDFEKSNSRKRPRDVPQQEEEAEGNYQESWQASGSQPYSPEHRQKKHRKLPELERPHKVAHGHERRDERKRCHKVSPPYSSDPESSDYGHVQSPPPSSPHQMYTDLSRSPEMDQEPIVSHPKPGKVHSNTFQDRLGVSHLGEHQGKGAVSQNKPHKSSHKEKRPVDARGDEKSSVMGREKSHKASSKEESRRLLSEDSAKEKLPSSVVKKEKDREGNSLKKKLSPALDVASDNHFKKPKHKDSEKIKSDKNKQSVDSVDSGRGTGDPLPRAKDKVPNNLKAQEGKVRTNSDRKSPGSLPKVEEMDMDDEFEQPTMSFESYLSYDQPRKKKKKVVKTSGTALGEKGLKKKDSKSTSKNLNSAQKLPKANENKSDKLQPAGAEPTRPRKVPTDVLPALPDIPLPAIQTNYRPLPSLELISSFQPKRKAFSSPQEEEEAGFTGRRMNSKMQVYSGSKCAYLPFEVGGVPYSVLEPVLERCTPDQLYRIEECNHVLIEETDQLWKVHCHRDFKEERPEEYESWREMYLRLQDAREQRLRLLTNNIRSAHANKPKGRQAKMAFVNSVAKPPRDVRRRQEKFGTGGAAVPEKVRIKPAPYTTGSSHVPASNSSSSFHSSPEELAYEGPSTSSAHLAPVASSSVSYDPRKPAVKKIAPMMAKTIKAFKNRFSRR
no binding	Elongin A deletion mutant A(1-535) (other) MAAESALQVVEKLQARLAANPDPKKLLKYLKKLSVLPITVDILVETGVGKTVNSFRKHEQVGNFARDLVAQWKKLVPVERNNEAEDQDFEKSNSRKRPRDVPQQEEEAEGNYQESWQASGSQPYSPEHRQKKHRKLPELERPHKVAHGHERRDERKRCHKVSPPYSSDPESSDYGHVQSPPPSSPHQMYTDLSRSPEMDQEPIVSHPKPGKVHSNTFQDRLGVSHLGEHQGKGAVSQNKPHKSSHKEKRPVDARGDEKSSVMGREKSHKASSKEESRRLLSEDSAKEKLPSSVVKKEKDREGNSLKKKLSPALDVASDNHFKKPKHKDSEKIKSDKNKQSVDSVDSGRGTGDPLPRAKDKVPNNLKAQEGKVRTNSDRKSPGSLPKVEEMDMDDEFEQPTMSFESYLSYDQPRKKKKKVVKTSGTALGEKGLKKKDSKSTSKNLNSAQKLPKANENKSDKLQPAGAEPTRPRKVPTDVLPALPDIPLPAIQTNYRPLPSLELISSFQPKRKAFSSPQEEEEAGFTGRRMNSKMQV
